# Reference: the nanobody polyreactivity screen of Harvey et al. (2022)
# Test: yeast display, Sf9 membrane polyspecificity reagent, FACS + sequencing; frameworks hold sequencing errors
# How it was run: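 Synthetic nanobody libraries on Saccharomyces cerevisiae BJ5465 were galactose-induced for 36–48 hours, stained 1 hour at 4 °C with 10% biotinylated, detergent-solubilized Sf9 membrane reagent and enriched on streptavidin microbeads. FACS then separated cells into low and high (top ~1%) gates by anti-HA (expression) and streptavidin (reagent binding) fluorescence. Genes were colony-PCR amplified, MiSeq 2 × 250 sequenced and CDR-length filtered. A clone's polyreactivity label is that of its gate of origin.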
row,Sequence,polyreactivity (PSR sort gate)
1,QVQLVESGGGLVQAGGSLRLSCAASGRIFPYYAMGWSRQAPGKVRELVAAISVSDVRTYYPDSVKGRFTISRDNAKNTVYLQMNSLKPEDTAVYYCAAYWYRSPQSGLDYWGQGTQVTVSS,low polyreactivity
2,QDQHVESGGGLVQAGGSLRLSCAASGRTFAGYAMGWYRQAPGKERELVATISGRGGSTSYADSVKGRFTISRDNAKNTVYLQMNSLIPEDTAVYYCAKASWYKYKYDYWGQGTQVTVSS,high polyreactivity
3,QVQRVESGGGLVQAGGSLRLSCAASGSIIQPYARGWYRQSPGKERELVAAIRSSTGSTYYADSVKGRFTISRDIAKNTVYLQQNSLKPEDSAVYYCARRRWSYVRGYSSGMYYWGQGTQVTVSS,high polyreactivity
4,QVQLVESGGGLVQAGGSLRLSCAASGSIFAWYTMGWYRQAPGKERELVATITRGGSTTYADSVKGRFTISRDNAKITVYLQMNSLKPEDTAVYYCAADWRTKGYDSLGQGTQVTVSS,high polyreactivity
5,QVQLVESGGGLVQAGGSLRLSCAASGIIFIGNAMGWYRQAPGKERELVAAISRRGGRTYYADSVKGRFTISRDNAKNTVYLQMNSLKPEDTAVYYCNAEITVNDDDYWGQGTQVTVSS,low polyreactivity
6,QVQLVESGGGLVQAGGSLRFSCAASGFTFRKNAMGWYRQAPGKERELVAAISRRGGRTYYADSVKGRFTISRDNAKNTVYLQMNSLKPEDTAVYYCNADEYGGSTGRKGRYNYWGQGTQVTVSS,low polyreactivity
7,QVQLVESGGGLVQAGGSLRLSCAASGSTFDTNAMGWYRQAPGKERELVAAITSGGNTYADSVKGRFTISRDNAKNTVYLQMNSLKPEDTAVYYCAAEDVYTGWYDYWGQGTQVTVSS,low polyreactivity
8,QVQLVESGGGLVQAGGSLRLSCAASGSIIFLYAMGWYRQAPGKERELVASISTSGTTITYYADSVKGRFTISRDNAKNTVYLQMNSLKPEDTAVYYCAADTLYYPYDYWGQGTQVTVSS,low polyreactivity
9,QDQLVESVGGLVQAGGSLRLSCAASGRTLVRYVMGWYRQAPGKERELVAAISARTGSTYYADSVKGRFTISRDNAKNTVYLQMNSLKPEDTAVYYCATKFSSYDTRVSYDYWGQGTQVTVSS,low polyreactivity
10,QVQLVESGGGLVQAGGSLRLSCAASGINFNYYVMGWYRQAPGKERELVAAISRSGGRTRYADSVKGRFTISRDNAKNTVYLQMNSLKPEDTAVYYCAAVGSVNYDADFDYWGQGTQVTVSS,high polyreactivity
11,QVQLVVSGGGLVQAGGSLRLSCAASGYIFVYNAMGWYRQAPGKERELVSAITDGGGSTYADSVKGRFTISRDNAKNTVYLQMNSLKPEDTAVYYCAALYSDTTWYVLYYYWGQGTQVTVSS,low polyreactivity
12,QVQLVESGGGLVQAGGILRLTSAGSGFNYYPYDMGWSRQAPGKERELVAAITQSGGSTYYADSVKGRFTISRDNAKITVYLQMISLKPEDTAVYSCNADTRGEYTYVSWYDYWGQGSQVTVSS,low polyreactivity
13,QVQLVETWGGLVQAGGSLRLSCPASGSIFPRKAMGWYRQAPGKERELVAGISSGGSTNYADSVKGRFTISRDNAKNTVYLQMNSLKPEDTAVYYCAARQWIRNLGFGYSIYNYWGQGTQVTVSS,high polyreactivity
14,QVQLVESGGGLVQAGGSLRLSCAASGFIFHLYGMAWYRQAPGKERELVAAISSGGRAYYADSVKGRFTISRDNAKNTVYLQMNSLKPEDTAVYDCAVYVAYLYSYYYWGQGTQVTVSS,low polyreactivity
15,QVQLVESGGGLVQAGGSLRLSCAASGFTFGHYAMGWYRQAPGKERELVAAIRWSGGSTYYADSVKGRITISRDHAKNTVYLQMNSLKPEDTAVYYCGARRFDGYDYDYWGQGTQVTESS,low polyreactivity
16,QVQLVESGGGLVQAGGSLRLSCAGLRIYLPGYAKGWYIQAPGKERELVAVISGSGSGTYYADSVKGRFTISLDNAKNTVYLQMNSLKPEDTAVYYCAADAGSNEAYFRRMDYWGQGTQVTVSS,high polyreactivity
17,QVQLVESGGGLVQAGGSLRLSCAASGNTFYYYAMGWYRQAPGKERELVAAIRRSGGTTYYADSVKGRFTISRDNAKNTVYLQMNSLKPEDTAVYYCAARVYRSYANVEGNYWGQGTQVTVSS,high polyreactivity
18,QVQLQESGGGLVQAGGSLRMSCAASGSISSRDAMGLYRQAPGKEREFVATIASGTTTYYADSVKGSFTISRDNAENTVYLQTNSLKPEDTAVYYCAAPTIQIYPFYYWGQGTQVTVSS,high polyreactivity
19,QVHLVESGGGLVQAGGSLRLSCAASGSTFWYNAMRWYRQAPGKERELVASIDDIGGSTYYADSVKGRFTISRDNAKYTVYLQMNSLKPEDTAVYYCAKDYGSSYVTDSDYWGQATQVTVSS,low polyreactivity
20,QDQLVESGGGLVQAGGSLRLSCAASGRTFPYKAMGWYRQAPGKERELVAAISYAGGRTYYADSVKGRFTISRDTAKNTVYLQMNSLKPEDTAVYYCYALGSGREDDYWGQGTQVTVSS,high polyreactivity
21,QDQLVESGVGLVQEGGSLRLSCAASGSILKRYVMGWYRQAPGKERELVAAISSGSRTYYADSVKGRFTISRDNAKNTVYLQMNSLKPEDTAVYYCAADLTYKYHYDYWGQGTQVTVSS,high polyreactivity
22,QVQLVESGGGLVQAGGSLRLSCAASGSTFRYNAMGWYRQAPGKERELVASITWSGGDTYYADSVKGRFTISRDNAKNTVYLQMNSLKPEDTAVYYCAKKGYASRYFIYDYWGQGTQVTVSS,low polyreactivity

row,Sequence,polyreactivity (PSR sort gate)
1,QVQLVESGGGLVQAGGSLRLSCAASGSTFYLYAMGWYRQAPGKERELVAAISSGGRTNYADSVKGRFTISLDNAKNTVYLQINSLKPEDTAVYYCAARIQWPTWSLYYYWGQGSQVTVSS,high polyreactivity
2,QVHLVESGGCLVQAGGSLRLSCAASGNSFVSNAMGWYIQAPGKERELVAAIDSGGSTNYADSVKGRFTISRDNAKNTVYLQMNSLKPVDTAVYYCNRTSVYYYYWGQGTQVTVSS,low polyreactivity
3,QVQLVESGGGLVQAGGSLRLSCAASGRTFGYYTMGWYRQAPGKEREYVAAISGSGTITFYADSVKGRFTISRDNAKNTVYLQMNSLKPEDTAVYYCAADYRYGGSRGYRYDYWGQGTQVTVSS,low polyreactivity
4,QVQLVESGGGLVQAGGSLRLSCAASGFTIDAYAMGWDRQAPGKERELVAAISGSGGSTYYADSVKGRFTISRDNAKNTVYLQMNSLKPEDTAVYYCATDPGPYDYDYWGQGTQVTVSS,low polyreactivity
5,QVQLVESGGGLVQAGGSLRLSCAASGFILDWYTMGWYRHAPGKEREFVAAITSRGGDTYYADSVKGRFTISRDNAKNTVYLQMNSLTPEDTAVYYCNKGFKLWPRYGYDYWGQGTQVTVSS,low polyreactivity
6,QVQLVESGGGLVQAGGSLRLSCAASGSTFKGYSMGWYRQAPGKERALVAAISRSGTRTYYADSVKGRFTISRDNAKNTVYLHMTILKPEVTAVYYCNKVTGFIAHDNEKGRDYWGQGTQVTVSS,low polyreactivity
7,QVQLVESGGGLVQAGGSLRLSCAASGFTLKYNTMGWYRQAPGKERELVAAITSSGVSTYYSDSVKGRFTISRDNAKNTVYLQMNSLKPEDTAVYYCNARERYSYWGQGTQVTVSS,high polyreactivity
8,QVQLVESGGGLVQAGGSLRLSCAASGRTFLVNAMGWYRQAPGKERELVAVMTRGGSTNYADSVKGRFTISRDNAKNTVYLQMNSLKPEDTAVYYCAKQFSPYRSYGPVVRYDYWGQGTQVTVSS,low polyreactivity
9,QVQLVESGGGLVQAGGSLRLSCAASGSTFTPYVMGWYRQAPGKEREVVAAISNVGRTYYADSVKGRFTISRDNAKNTVYLQMNSLKPEDTAVYYCAVRRDKNYYDWGQGTQVTVSS,high polyreactivity
10,QVQLVESGGGLVQAGGSLRLSCAASGIMFSSYAMLWYRQAPGKERELFAAISWSGGSTYYADSVKLRFTISRDNAKNTVYLQMNSLKPEDTAVYYCAAKSHWYKRGYWGQGTQVTVSS,low polyreactivity
11,QVQLVESGGGLVQAGGSLRLSCAASGSTSSSKAMGWYREAPGKERELVATITNGSGTSYADSVKGRFTISRDNAKNTVYLQMNSLKPEDTAVYYCYVSSLNSYTSGTTYWGLDYWGQGTQVTVSS,low polyreactivity
12,QVQLVESGGGLVQAGGSLRLSCAASGFTFYRNAMGWYRQAPGKERELVAAITWSGTSTYYADSVKGRFTISRDNAKNTVYLQMNSLKPEDTAVYYCNTVGYRGRSNSRFYYWGQGTQVTVSS,high polyreactivity
13,QVQLVESGGGLVQAGGSLRLSCAASGSIFTNAMGWYRQAPGKERELVAAISSTGGSTYYADSVKGRFTISRDNAKNTVYLQMYSLKPEDTAVYYCAADHYGGRDYWGQGTQLTVSS,low polyreactivity
14,QVQLVESGGGLVQARGSLRLSCAASGSTFGWYAMGWYREAPGKERELVAAIYRGGGSTYYADSVKVRFTISRDNAMNTVYLQMNSLKPEDTAVYYCAAYSYYQGGMDYWGEGTQVTVSS,high polyreactivity
15,QVQLVESGGGLVQAGGSLRLSCAASGIFSYYAMGWYRPAPGKERELVAAISSSGGSTYYADSVKGRFTISRDNAMNTVYLQMNSLKPEDTAVYYCNVRNYYNDYYYWGQGTQVTVSS,high polyreactivity
16,QVQLVESGGGLVQAGGSLRLSCAASGLIFYLYTMGWYRQAPGQERELVAAISRSGGSTYYADSVKGRFTISRDNAKNTVYVQMNSLKPEDPAVYYCAALRSRSTYNDYNYWGQGTQVTVSS,high polyreactivity
17,QVQLVESGGGLVQAGGSLRLSCAASGSTFLGYTMGWYRQAPGKERELVAAISRRGSSTYYADSVKGRFTISRDNAKNTVYLQMNSLKPEDTAVYYCAAYATSFRDGYWGQGTQVTVSS,high polyreactivity
18,QVQLVESGGGLVQAGGSLRLSGAASGRIFATNAMGWYRQAPGKETELVATITRSAGRTYYADSVKGRFTNSRDNAKNTVYLQMNSLKPEETAVYYCAASYWDTEPGYREYDYWGQGTQVTVSS,low polyreactivity
19,QVQLVESGGGLVQAGGSLRLSCAASGFTFGRYAMGWYRQAPGKERELVAAISFSGGRTYYADSVKGRFTISRDNAKNTVYLQMNSLKPEDTAVYYCNTAYWYSLYDYWGQGTQVTVSS,high polyreactivity
20,QVQLVESGGGLVQAGGSLRLSCAASGIIFFYYGMGWYIQAPGKERELVARISSGGSTNYADSVKGRFTISRDNAKITVYLQMNSLKQEDTAVYYCAARISTRYGYWGQGTQVTVSS,low polyreactivity
21,QVQLVESGGGLVQAGGSLRLSCAASGRIFWANAMGWYRQAPGKERELVAAISYSGVSTYYADSVKGRFTISRDNAKNTVYLQMNSLKPEDTAVYFCAADRYRKYYYWGQGTQVTVSS,high polyreactivity
